Assay results from PMC117134.

Molecular target: HIV-1 reverse transcriptase p66 subunit, wild type (HIV-1)
Experiment: glycerol gradient ultracentrifugation

Work on “HIV-1 reverse transcriptase p66 subunit, wild type (enzyme)” yielded a stoichiometry N of 2.
